The text below walks through data of patent US9688764B2, “Methods of treating breast cancer by administering anti-human prolactin receptor (PRLR) antibodies” (REGENERON PHARMACEUTICALS, INC., priority 2013, dated 2017).

The chains are these.
T1: HEK293/hPRLR (Homo sapiens, UniProt P16471)
T1 construct: HA; expressed in transfected cells; host or cells: HEK293
T1 sequence (P16471 25-622): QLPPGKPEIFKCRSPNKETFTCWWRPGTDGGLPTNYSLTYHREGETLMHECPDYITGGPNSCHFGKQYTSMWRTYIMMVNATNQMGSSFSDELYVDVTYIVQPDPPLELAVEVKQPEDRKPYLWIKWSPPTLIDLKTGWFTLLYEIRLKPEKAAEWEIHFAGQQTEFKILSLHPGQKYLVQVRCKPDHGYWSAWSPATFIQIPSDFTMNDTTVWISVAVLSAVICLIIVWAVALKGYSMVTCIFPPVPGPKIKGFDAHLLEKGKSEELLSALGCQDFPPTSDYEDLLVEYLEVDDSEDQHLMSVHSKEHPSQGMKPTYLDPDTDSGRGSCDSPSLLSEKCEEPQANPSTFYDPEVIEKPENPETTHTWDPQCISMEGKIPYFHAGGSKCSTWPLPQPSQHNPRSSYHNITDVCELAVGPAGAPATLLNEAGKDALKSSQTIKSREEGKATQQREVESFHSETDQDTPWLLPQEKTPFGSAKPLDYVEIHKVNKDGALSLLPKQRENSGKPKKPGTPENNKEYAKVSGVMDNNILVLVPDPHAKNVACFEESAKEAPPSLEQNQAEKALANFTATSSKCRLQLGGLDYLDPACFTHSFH

T2: HEK293/mPRLR (Mus musculus, UniProt Q08501)
T2 construct: HA; expressed in transfected cells; host or cells: HEK293
T2 sequence (Q08501 20-608): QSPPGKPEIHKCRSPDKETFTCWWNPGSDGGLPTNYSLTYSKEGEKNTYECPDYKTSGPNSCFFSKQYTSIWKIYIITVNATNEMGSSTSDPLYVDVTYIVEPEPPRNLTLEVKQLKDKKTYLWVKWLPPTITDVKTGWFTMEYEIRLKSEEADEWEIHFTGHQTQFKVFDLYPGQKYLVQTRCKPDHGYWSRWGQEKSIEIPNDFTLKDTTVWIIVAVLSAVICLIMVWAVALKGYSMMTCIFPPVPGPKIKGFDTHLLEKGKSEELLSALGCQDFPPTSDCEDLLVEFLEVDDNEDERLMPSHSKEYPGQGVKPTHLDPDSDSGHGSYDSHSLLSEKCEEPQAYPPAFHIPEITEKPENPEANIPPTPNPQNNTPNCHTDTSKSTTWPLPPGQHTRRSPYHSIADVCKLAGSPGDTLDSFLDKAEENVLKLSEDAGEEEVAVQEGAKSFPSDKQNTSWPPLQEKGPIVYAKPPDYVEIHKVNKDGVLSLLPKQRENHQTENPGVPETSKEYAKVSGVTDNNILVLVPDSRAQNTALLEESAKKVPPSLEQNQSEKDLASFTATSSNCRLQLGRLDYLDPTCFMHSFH

T3: T47D (native PRLR expressing cell line) (Homo sapiens, UniProt P16471)
T3 construct: a native PRLR expressing cell line (T47D); endogenous in cells; host or cells: T47D
T3 sequence (P16471 25-622): T1 sequence (P16471 25-622)

B1: H1H6781P: anti-PRLR antibody, human IgG1 Fc; HCVR/LCVR SEQ ID NOs 50/58 (antibody, V domains shown)
VH: EVQLVESGGDLVQPGESLRLSCTASGFTFNSYEMNWVRQAPGKGLEWVSYISSSGGTKYYVDSVKGRFTISRDNAKKSLYLQMNSLRADDTALYYCARLNGVDVFDIWGQGTMVTVSS
VL: DIQMTQSPSSLSASVGDRVTITCRASQDIFNYLAWFQQKPGKVPELLISAASTLQSGVPSRFSGSGSGTYFTLTISSLQPEDIATYYCQRYNSAPLTFGGGTKVEIK
modifications: human IgG1 Fc
B2: H1H6765P: anti-PRLR antibody, human IgG1 Fc; HCVR/LCVR SEQ ID NOs 18/26 (antibody, V domains shown)
VH: EVQLVESGGGVVRPGGSLRLSCVGSGFSFDDHGMNWVRQGPGKGLEWVSGFNWNGGSTNYAESVKGRFTISRDNARNSLFLQMNSLRAEDTALYYCVRGRSGWFNDAFDVWGPGTMVTVSS
VL: EIVLTQSPGTLSLSPGERATLSCRASQTINSNYLAWYRQKPGQTPRLLIYGTSSRATGIPDRFSGSGSGTDFSLTISRLEPEDFAVFYCQQYAGLPTFGPGTKVDIK
modifications: human IgG1 Fc
B3: H1H6774P: anti-PRLR antibody, human IgG1 Fc; HCVR/LCVR SEQ ID NOs 34/42 (antibody, V domains shown)
VH: EVQLVESGGGLAQPGGSLRLSCVASGFTFSTYWMSWVRQAPGKGLDWVGNIKQDGSEQNYVDSVRGRFTISRDNAKNSLFLQMNSLRAEDTGVYYCATLLTKGDYWGQGTLVTVSS
VL: DIQMTQSPSSLSASVGDSVTITCRASQDISNYLDWFQQKPGKAPKSLIYAASILQGGVPSRFSGSGYGTDFTLTISSLQPEDFATYYCRQYKTYPFTFGPGTKVDIK
modifications: human IgG1 Fc

mfPRLR.mmh (monomeric macaca fascicularis PRLR), sequence (as listed by the source): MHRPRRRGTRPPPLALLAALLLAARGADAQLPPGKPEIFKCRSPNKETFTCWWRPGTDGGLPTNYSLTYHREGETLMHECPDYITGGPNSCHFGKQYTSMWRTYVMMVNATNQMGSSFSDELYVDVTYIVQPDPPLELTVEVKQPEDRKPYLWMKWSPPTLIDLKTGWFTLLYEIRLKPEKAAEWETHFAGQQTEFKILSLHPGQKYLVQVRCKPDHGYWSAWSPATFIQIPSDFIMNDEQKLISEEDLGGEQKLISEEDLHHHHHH

In the first experiment the target is T4, hPRLR.mFc (soluble dimeric human PRLR) (Homo sapiens, UniProt P16471).
T4 construct: dimeric (hPRLR.mFc)
T4 sequence (P16471 with tags, fused parts or gaps): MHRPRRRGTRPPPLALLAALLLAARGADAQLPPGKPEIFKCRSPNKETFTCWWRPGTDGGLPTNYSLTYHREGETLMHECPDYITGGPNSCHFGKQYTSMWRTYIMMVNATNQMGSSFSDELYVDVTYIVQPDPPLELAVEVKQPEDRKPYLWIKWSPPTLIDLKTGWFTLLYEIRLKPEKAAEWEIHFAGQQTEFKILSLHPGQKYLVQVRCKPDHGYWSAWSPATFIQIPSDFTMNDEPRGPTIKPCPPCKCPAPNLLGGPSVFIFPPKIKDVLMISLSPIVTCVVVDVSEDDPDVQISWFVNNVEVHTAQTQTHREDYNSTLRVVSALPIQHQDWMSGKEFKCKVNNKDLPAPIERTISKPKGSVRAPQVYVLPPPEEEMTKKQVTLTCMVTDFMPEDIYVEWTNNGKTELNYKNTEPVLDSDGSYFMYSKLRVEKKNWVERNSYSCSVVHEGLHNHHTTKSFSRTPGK
Description: Surface plasmon resonance (Biacore T200), mAb-capture format. It counts as binding. The settings on record: 25° C., antibody-capture format, analyte hPRLR.mFc. The procedure:
(§1) Antibodies, expressed as human IgG1 Fc “[…]” designations), were captured onto an anti-human Fc sensor surface (mAb-capture format), and soluble monomeric (hPRLR.mmh; SEQ ID NO:401, or macaca fascicularis (mf) PRLR.mmh; SEQ ID NO:403) or dimeric (hPRLR.mFc; SEQ ID NO:402) PRLR protein was injected over the sensor surface. Measurements were conducted on a T200 Biacore instrument. Kinetic association (ka) and dissociation (kd) rate constants were determined by processing and fitting the data to a 1:1 binding model using Scrubber 2.0 curve fitting software.
A general note: SPR reads the build-up and loss of mass on a sensor chip optically.
By Kd is commonly meant the equilibrium constant for the complex coming apart. Read a high Kd as weaker binding. For the molecule B1, binding was put at a Kd of 236 pM and the T½ was 3.18 h.

As for B2, the Kd amounted to 39.2 pM and the T½ was determined as 5.65 h.

Consider B3, for which the affinity, expressed as Kd, was 112 pM and the T½ amounted to 2.15 h.

Still in this experiment, the particulars now being: 37° C., antibody-capture format, analyte hPRLR.mFc.
As to B1, the dissociation constant (Kd) turned out to be 226 pM and the T½ came out at 1.95 h.

In the case of B2, the dissociation constant (Kd) was found to be 128 pM and the T½ came out at 1.87 h.

Molecule B3 displayed a Kd of 138 pM and a T½ of 1 h.

The target of a further experiment is T5, hPRLR.mmh (soluble monomeric human PRLR) (Homo sapiens, UniProt P16471).
T5 construct: soluble monomeric (hPRLR.mmh); mmh (myc-myc-hexahistidine)
T5 sequence (P16471 with tags, fused parts or gaps): as the sequence (as listed by the source) above, with V105I, T139A, M154I, T187I, I236T counted along it
Described as above. The settings on record: 25° C., antibody-capture format, analyte hPRLR.mmh. It counts as binding. On the procedure: as §1
In turn, B1 registered a Kd of 610 pM and a T½ of 1.52 h.

The molecule B2 gave a dissociation constant Kd of 124 pM and a T½ of 1.7 h.

On to B3, for which the Kd was 1140 pM and the T½ is 0.233 h.

Staying with this experiment, now noted: 37° C., antibody-capture format, analyte hPRLR.mmh.
In turn, B1 registered a Kd of 910 pM and a T½ of 0.617 h.

Molecule B2 gave a Kd of 292 pM and a T½ of 0.533 h.

In the case of B3, binding was put at a Kd of 2950 pM and the T½ came out at 0.067 h.

A further experiment has as its target mfPRLR.mmh (monomeric macaca fascicularis PRLR). The description is as above. The settings on record: 25° C., antibody-capture format, analyte mfPRLR.mmh. It counts as binding. The procedure: as §1
B1 displayed a Kd of 986 pM and a T½ of 1.37 h.

As for B2, the Kd is 254 pM and the T½ was determined as 1.43 h.

As for B3, the Kd was determined as 1770 pM and the T½ turned out to be 0.217 h.

The experiment is the same for the next values; noted with them: 37° C., antibody-capture format, analyte mfPRLR.mmh.
With B1, the dissociation constant (Kd) was 1080 pM and the T½ was determined as 0.717 h.

With B2, the dissociation constant (Kd) turned out to be 50.4 pM and the T½ stood at 3.58 h.

As to B3, the dissociation constant (Kd) was determined as 5000 pM and the T½ stood at 0.05 h.

The next experiment relates to HEK293 (non-expressing parental cells). Description: FACS cell surface binding.
Details: not given
On the procedure:
(§2) The ability of anti-PRLR antibodies to selectively bind PRLR expressing cell lines was next determined. Human, monkey macaca fascicularis, and mouse PRLR constructs with an HA tag were stably introduced into HEK293 cells via Lipofectamine 2000-mediated transfection methodology. Transfectants (HEK293/hPRLR, HEK293/mfPRLR and HEK293/mPRLR) were selected for at least 2 weeks in complete growth media plus G418.
(§3) Cell surface expression of PRLR on 293/hPRLR cells was assessed via FACS analysis. Briefly, 1×10^5 cells were incubated with 10 μg/ml of Control antibody I, or an isotype control for 30 min on ice in antibody dilution buffer. Following two washes with antibody dilution buffer, cells were incubated with 10 μg/ml of PE conjugated anti-human secondary antibodies for 30 min on ice. Following two additional washes, samples were run on a Hypercyt® cytometer and analyzed in FORECYT™ (IntelliCyt, Albuquerque, N. Mex.). The mean fluorescence intensities (MFI) were expressed as fold change above isotype control levels (background). FACS binding confirmed that Control I selectively bound to 293/hPRLR expressing cells with MFIs that were 30 fold above background (isotype ctrl) levels and less than 2 fold binding on parental cells.
(§4) Next, the anti-PRLR antibodies of the present invention were tested via FACS for selective binding to the engineered overexpressing PRLR HEK293 cell lines, as well as to non-expressing HEK293 cells and a native PRLR expressing cell line (T47D).
In the case of B1, the “FACS Cell Binding (Fold Above Background)” value came to 1 Fold Above Background.

As to B2, the “FACS Cell Binding (Fold Above Background)” value amounted to 2 Fold Above Background.

B3: the “FACS Cell Binding (Fold Above Background)” value amounted to 1 Fold Above Background.

The target in a further experiment is T1, HEK293/hPRLR. Description: FACS cell surface binding.
Details: not given
The procedure:
as §2, §3, §4
On to B1, for which the “FACS Cell Binding (Fold Above Background)” value worked out at 37 Fold Above Background.

On to B2, for which the “FACS Cell Binding (Fold Above Background)” value was determined as 38 Fold Above Background.

Regarding B3, the “FACS Cell Binding (Fold Above Background)” value was 1 Fold Above Background.

The next experiment has as its target T2, HEK293/mPRLR. Nature of the experiment: FACS cell surface binding.
Details: not given
On the procedure:
as §2, §3, §4
In the case of B1, the “FACS Cell Binding (Fold Above Background)” value turned out to be 1 Fold Above Background.

Consider B2, for which the “FACS Cell Binding (Fold Above Background)” value is recorded as 1 Fold Above Background.

As for B3, the “FACS Cell Binding (Fold Above Background)” value was determined as 1 Fold Above Background.

The next experiment deals with T3, T47D (native PRLR expressing cell line). Description: FACS cell surface binding.
Details: not given
On the procedure: as §2, §3, §4
With B1, the “FACS Cell Binding (Fold Above Background)” value came to 40 Fold Above Background.

On to B2, for which the “FACS Cell Binding (Fold Above Background)” value came out at 40 Fold Above Background.

Take B3: the “FACS Cell Binding (Fold Above Background)” value was determined as 39 Fold Above Background.
